Measurements taken from patent publication US20190062426A1.

B1: 5F11-28Z CAR (protein)
chain: DIQMTQSPTSLSASVGDRVTITCRASQGISSWLTWYQQKPEKAPKSLIYAASSLQSGVPSRFSGSGSGTDFTLTISSLQPEDFATYYCQQYDSYPITFGQGTRLEIKGSTSGSGKPGSGEGSTKGQVQLQQWGAGLLKPSETLSLTCAVYGGSFSAYYWSWIRQPPGKGLEWIGDINHGGGTNYNPSLKSRVTISVDTSKNQFSLKLNSVTAADTAVYYCASLTAYWGQGSLVTVSSIEVMYPPPYLDNEKSNGTIIHVKGKHLCPSPLFPGPSKPFWVLVVVGGVLACYSLLVTVAFIIFWVRSKRSRLLHSDYMNMTPRRPGPTRKHYQPYAPPRDFAAYRSRVKFSRSADAPAYQQGQNQLYNELNLGRREEYDVLDKRRGRDPEMGGKPRRKNPQEGLYNELQKDKMAEAYSEIGMKGERRRGKGHDGLYQGLSTATKDTYDALHMQALPPR

Molecular target: human CD30 (tumor necrosis factor receptor superfamily, member 8 (TNFRSF8)) (human) (UniProt P28908)
Assay: cell-based or functional assay

UniProt P28908, sequence (P28908 19-595): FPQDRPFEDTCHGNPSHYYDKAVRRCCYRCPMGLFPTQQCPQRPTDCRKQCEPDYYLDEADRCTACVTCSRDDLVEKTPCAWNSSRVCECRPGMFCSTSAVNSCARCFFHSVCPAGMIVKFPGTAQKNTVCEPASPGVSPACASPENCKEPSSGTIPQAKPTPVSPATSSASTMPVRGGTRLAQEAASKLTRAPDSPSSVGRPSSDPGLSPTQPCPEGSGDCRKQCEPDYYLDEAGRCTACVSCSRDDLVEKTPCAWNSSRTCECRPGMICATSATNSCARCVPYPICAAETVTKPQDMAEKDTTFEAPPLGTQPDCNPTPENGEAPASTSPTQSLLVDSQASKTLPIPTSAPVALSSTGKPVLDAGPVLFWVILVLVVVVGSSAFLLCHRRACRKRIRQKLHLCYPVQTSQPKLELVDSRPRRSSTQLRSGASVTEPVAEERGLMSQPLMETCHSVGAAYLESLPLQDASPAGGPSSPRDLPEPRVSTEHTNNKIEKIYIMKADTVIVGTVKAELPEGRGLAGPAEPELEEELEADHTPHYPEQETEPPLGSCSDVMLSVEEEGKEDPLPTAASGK

| Molecule | CD107a degranulation, % CD8+CD107a+ cells after 4 h with CD30-bv173 cells (% of live CD3+ lymphocytes) | CD107a degranulation, % CD8-CD107a+ cells after 4 h with CD30-bv173 cells (% of live CD3+ lymphocytes) | antigen-specific IFNγ production on culture with CD30+ HH lymphoma cells | IFNγ released (ELISA) after overnight culture with CD30+ HDLM-2 cells [pg/mL] | IFNγ released (ELISA) after overnight culture with CD30+ SUDHL-1 cells [pg/mL] | CD107a degranulation, % CD8+CD107a+ cells after 4 h with CD30+ SUDHL-1 cells (% of live CD3+ lymphocytes) | CD107a degranulation, % CD8-CD107a+ cells after 4 h with CD30+ SUDHL-1 cells (% of live CD3+ lymphocytes) | IFNγ released (ELISA) on co-culture with CD30+ HH cells [pg/mL] | IFNγ released (ELISA) on co-culture with CD30+ SUDHL-1 cells [pg/mL] | IFNγ released (ELISA) on co-culture with CD30-bv173 cells [pg/mL] | IFNγ released (ELISA) on overnight culture with CD30+ HH cells, 0 µg/mL soluble human CD30 protein added [pg/mL] | IFNγ released (ELISA) on overnight culture with CD30+ HH cells, 0.2 µg/mL soluble human CD30 protein added [pg/mL] | IFNγ released (ELISA) on overnight culture with CD30+ HH cells, 1 µg/mL soluble human CD30 protein added [pg/mL] | IFNγ released (ELISA) on overnight culture with CD30+ HH cells, 5 µg/mL soluble human CD30 protein added [pg/mL] |
| --- | --- | --- | --- | --- | --- | --- | --- | --- | --- | --- | --- | --- | --- | --- |
| 5F11-CD8BBZ CAR | 25.9 | 12.1 | 47700 | – | – | – | – | – | – | – | – | – | – | – |
| 5F11-CD828Z CAR | 30 | 11.6 | 34300 | 3010 | 2300 | – | – | – | – | – | – | – | – | – |
| AC10-28Z CAR | – | – | – | – | – | 6.18 | 1.34 | 8140 | 4850 | 538 | – | – | – | – |
| XmAb2513-28Z CAR | – | – | – | – | – | 7.72 | 1.86 | 4700 | 2440 | 388 | – | – | – | – |
| B1 | 39.5 | 6.82 | 127000 | 3530 | 3490 | 47.4 | 4.32 | 78600 | 25500 | 3780 | 23000 | 18400 | 19900 | 18700 |
